# Data taken from patent US20250376509A1 (Janssen / Centocor, published 2025).
# T1: CALRins5 (Type 2 mutant calreticulin) on ELF-153 MPL CALRins5 cells (human, UniProt P27797 18-417)
# T1 sequence (looked up): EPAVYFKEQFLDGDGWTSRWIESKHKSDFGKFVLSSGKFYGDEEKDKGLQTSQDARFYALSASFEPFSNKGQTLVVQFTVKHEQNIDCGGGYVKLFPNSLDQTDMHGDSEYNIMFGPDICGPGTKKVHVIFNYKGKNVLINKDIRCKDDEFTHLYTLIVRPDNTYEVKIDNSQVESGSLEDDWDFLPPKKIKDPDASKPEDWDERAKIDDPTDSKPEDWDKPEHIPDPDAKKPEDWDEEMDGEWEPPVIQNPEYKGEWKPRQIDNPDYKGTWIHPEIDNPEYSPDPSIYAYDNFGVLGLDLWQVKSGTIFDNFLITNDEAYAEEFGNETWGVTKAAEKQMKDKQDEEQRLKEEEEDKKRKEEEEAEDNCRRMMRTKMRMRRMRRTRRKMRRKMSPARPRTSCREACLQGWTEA
# B1: C3CRB73, a CALRmut x CD3 bispecific antibody (bispecific antibody, human IgG1, kappa, L234A L235A)
# heavy: EVQLLESGGGLVQPGGSLRLSCAVSGIDLSNNAISWVRQAPGKGLEYVGVIGNTGDTYYADSAKGRFTISRDSSKTTLYLQMNSLRAEDTAVYFCVRGPPSYSSSVKNIWGQGTLVTVSSASTKGPSVFPLAPSSKSTSGGTAALGCLVKDYFPEPVTVSWNSGALTSGVHTFPAVLQSSGLYSLSSVVTVPSSSLGTQTYICNVNHKPSNTKVDKKVEPKSCDKTHTCPPCPAPEAAGGPSVFLFPPKPKDTLMISRTPEVTCVVVSVSHEDPEVKFNWYVDGVEVHNAKTKPREEQYNSTYRVVSVLTVLHQDWLNGKEYKCKVSNKALPAPIEKTISKAKGQPREPQVYTLPPSREEMTKNQVSLSCAVKGFYPSDIAVEWESNGQPENNYKTTPPVLDSDGSFFLVSKLTVDKSRWQQGNVFSCSVMHEALHNRFTQKSLSLSPGK
# light: DIQMTQSPSSVSASVGDRVTITCQSSQSVYNNNWLSWLQQKPGKAPKRLIYDASKLESGVPSRFSGSGSGTDFTLTISSVQPEDAATYYCAGGFTGNVYTFGGGTKVEIKRTVAAPSVFIFPPSDEQLKSGTASVVCLLNNFYPREAKVQWKVDNALQSGNSQESVTEQDSKDSTYSLSSTLTLSKADYEKHKVYACEVTHQGLSSPVTKSFNRGEC
# chain: DIQMTQSPSSLSASVGDRVTITCRARQSIGTAIHWYQQKPGCAPKLLIKYASESISGVPSRFSGSGSGTDFTLTISSLQPEDFATYYCQQSGSWPYTFGQGTKLEIKGGGSGGSGGCPPCGGSGGEVQLVESGGGLVKPGGSLRLSCAASGFTFSRYNMNWVRQAPGKGLEWVSSISTSSNYIYYADSVKGRFTFSRDNAKNSLDLQMSGLRAEDTAIYYCTRGWGPFDYWGCGTLVTVSSEPKSSDKTHTCPPCPAPEAAGGPSVFLFPPKPKDTLMISRTPEVTCVVVSVSHEDPEVKFNWYVDGVEVHNAKTKPREEQYNSTYRVVSVLTVLHQDWLNGKEYKCKVSNKALPAPIEKTISKAKGQPREPQVYTLPPSREEMTKNQVSLWCLVKGFYPSDIAVEWESNGQPENNYKTTPPVLDSDGSFFLYSKLTVDKSRWQQGNVFSCSVMHEALHNHYTQKSLSLSPGK
# Target: T1, CALRins5 (Type 2 mutant calreticulin) …
# Test: cell-based or functional assay
binder,measurement,value
B1,median EC50 of ELF-153 MPL CALRins5 cells cytotoxicity using patient whole blood,0.64 nM
